# According to publication PMC12282171, “VCY mediates inhibition of PFV replication via interaction with the transcription activator Tas” (Journal of Virology, 2025):
# Biological target: His-VCY (human, UniProt O14598 1-125)
# Assay: pull-down; purified His-VCY added to purified GST-Tas or GST coupled to glutathione sepharose, 3 h at 4 °C; western blot
# Details: both partners purified
binder,measurement,value
"GST-Tas (natural protein, also called recombinant GST-Tas; pGST-Tas; source: E. coli BL21, purified (GST column)) MDSYEKEESVASTSGIQDLQTLSELVGPENAGEGELTIAEEPEENPRRPRRYTKREVKCVSYHAYKEIEDKHPQHIKLQDWIPTPEEMSKSLCKRLILCGLYSAEKASEILRMPFTVSWEQSDTDPDCFIVSYTCIFCDAVIHDPMPIRWDPEVGIWVKYKPLRGIVGSAVFIMHKHQRNCSLVKPSTSCSEGPKPRPRHDPVLRCDMFEKHHKPRQKRPRRRSIDNESCASSSDTMANEPGSLCTNPLWNPGPLLSGLLEESSNLPNLEVHMSGGPFWEEVYGDSILGPPSGSGEHSVL",binding result,binds
